*1 amine or outer side, *2 acyl side, *3 side chain or, on linkers, in order; H or OH if unused. Bridges are numbered along the chain shown (N, C = ends). Where no end group is shown, it is not given here. [ ]: non-standard residue; d: D form. The star is where a group is joined. TATA = O=C(CC[*:1])N1CN(C(=O)CC[*:2])CN(C(=O)CC[*:3])C1; 1Nal = N[C@@H](Cc1cccc2ccccc12)C(=O)O; 2Nal = N[C@@H](Cc1ccc2ccccc2c1)C(=O)O; hPhe = N[C@@H](CCc1ccccc1)C(=O)O; NMeA = CN[C@@H](C)C(=O)O; Pent4ynoyl = C#CCCC(=O)*
How the values were obtained:
[1] = target: T1, TREM2 on human iPSC macrophages (human, UniProt Q9NZC2 19-230); test: cell-based or functional assay
T1 sequence (looked up): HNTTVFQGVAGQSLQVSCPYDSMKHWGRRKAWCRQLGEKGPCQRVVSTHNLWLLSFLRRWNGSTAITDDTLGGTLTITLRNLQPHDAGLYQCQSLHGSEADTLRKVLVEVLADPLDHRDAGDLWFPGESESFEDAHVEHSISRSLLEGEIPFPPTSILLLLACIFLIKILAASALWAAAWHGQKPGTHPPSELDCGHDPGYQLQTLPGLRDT

[2] = target: T2, Human TREM2 extracellular domain (ECD), residues 19-131, C-terminally biotinylated, deglycosylated (human, UniProt Q9NZC2 19-131, C-terminally biotinylated; deglycosylated); test: BLI steady state, deglycosylated human TREM2 ECD on sensor
T2 construct: range 19-131; loaded on Superstreptavidin biosensors; also called triggering receptor expressed on myeloid cells 2; Human BLI (deglycosylated)
T2 sequence (looked up): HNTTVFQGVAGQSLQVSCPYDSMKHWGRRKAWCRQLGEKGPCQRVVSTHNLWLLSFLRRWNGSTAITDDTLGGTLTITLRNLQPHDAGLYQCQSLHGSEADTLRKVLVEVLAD
Protocol: (§1) Bio-layer interferometry was performed on an Octet RED384® system (Sartorius) at 25° C. in a buffer containing 50 mM HEPES (pH 7.5), 150 mM NaCl and 0.1% Tween. […] Reference wells containing no bicycle peptides and reference sensors loaded with an unrelated protein (His-tagged MLLT3a) were subjected to the same assay protocol and double reference subtraction was used for processing to account for non-specific binding. Traces were analysed using Octet Software (Version 11.0). Association and dissociation curves were globally fit and the response at equilibrium (Req) plotted against concentration to obtain steady-state KD values.

[3] = target: T3, Human TREM2 extracellular domain (ECD), residues 19-131, C-terminally biotinylated, glycosylated (human, UniProt Q9NZC2 19-131, C-terminally biotinylated; glycosylated); test: BLI steady state, glycosylated human TREM2 ECD on sensor
T3 construct: range 19-131; loaded on Superstreptavidin biosensors; also called Human BLI glycosylated
T3 sequence (looked up): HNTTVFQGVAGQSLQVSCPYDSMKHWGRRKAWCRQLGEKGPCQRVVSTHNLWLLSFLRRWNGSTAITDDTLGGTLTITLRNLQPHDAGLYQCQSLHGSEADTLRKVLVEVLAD
Protocol: as §1

| Binder | pSYK (µM) [1] | Kd [2] | Kd [3] |
| --- | --- | --- | --- |
| Ac-CSEYCF[1Nal]P[hPhe]YHC (linker 1-5-12 via TATA) [BCY19672] | 8.5 µM | 2800 nM | – |
| CSEYCXWPFYHC (N-terminal acetyl (Ac); CiSEYCii[4FPhe]WPFYHCiii; Ci, Cii, Ciii on TATA scaffold) [BCY20053] | – | 2010 nM | 1710 nM |
| ACTNYCFWPFQSCA (linker 2-6-13 via TATA) [BCY19780] | 12.6 µM | 2400 nM | – |
| ACTNYCFWPFWSCA (linker 2-6-13 via TATA) [BCY19769] | 0.2 µM | 920 nM | – |
| ACTNYCFWPFQYCA (linker 2-6-13 via TATA) [BCY19779] | 2.5 µM | 920 nM | – |
| ACTNYCFWPFYSCA (linker 2-6-13 via TATA) [BCY19781] | 34.1 µM | 1400 nM | – |
| ACTNYCFWPFYLCA (linker 2-6-13 via TATA) [BCY19782] | 3.8 µM | 1400 nM | – |
| Ac-CSEYCFWPFYAC (linker 1-5-12 via TATA) [BCY19293] | 7.2 µM | 970 nM | – |
| ACTNYCFWPFAVCA (linker 2-6-13 via TATA) [BCY19783] | 4.2 µM | 2700 nM | – |
| ACSYYCFWPFQYCA (linker 2-6-13 via TATA) [BCY19767] | 8.6 µM | 550 nM | – |
| ACSYYCFWPFQSCA-NH2 (linker 2-6-13 via TATA; N-terminus assumed; SMILES C[C@H](N)C(=O)N[C@H]1CSCCC(=O)N2CN3CN(C2)C(=O)CCSC[C@H](NC(=O)[C@H](Cc2ccc(O)cc2)NC(=O)[C@H](Cc2ccc(O)cc2)NC(=O)[C@H](CO)NC1=O)C(=O)N[C@@H](Cc1ccccc1)C(=O)N[C@@H](Cc1c[nH]c2ccccc12)C(=O)N1CCC[C@H]1C(=O)N[C@@H](Cc1ccccc1)C(=O)N[C@@H](CCC(N)=O)C(=O)N[C@@H](CO)C(=O)N[C@H](C(=O)N[C@@H](C)C(N)=O)CSCCC3=O) [BCY19766] | 35.2 µM | 1000 nM | – |
| ACSEYCFWPFQWCA (linker 2-6-13 via TATA) [BCY19771] | 9.9 µM | 5700 nM | – |
| ACSEYCFWPFQYCA (linker 2-6-13 via TATA) [BCY19784] | 1.8 µM | 450 nM | – |
| CSEYCFWPXYHC (N-terminal acetyl (Ac); CiSEYCiiFWP[HPhe]YHCiii; Ci, Cii, Ciii on TATA scaffold) [BCY19667] | 7.4 µM | 430 nM | – |
| CSEYCXWPFYHC (N-terminal acetyl (Ac); CiSEYCii[1Nal]WPFYHCiii; Ci, Cii, Ciii on TATA scaffold) [BCY20054] | – | 2540 nM | 1830 nM |
| Ac-CSEYCFW[NMeA]FYAC (linker 1-5-12 via TATA) [BCY19303] | < 3.4 µM | 2300 nM | – |

| Binder | pSYK (µM) [1] | Kd [2] | Kd [3] |
| --- | --- | --- | --- |
| ACTSYCFWPFYQCA-NH2 (linker 2-6-13 via TATA; N-terminus assumed; SMILES C[C@H](N)C(=O)N[C@H]1CSCCC(=O)N2CN3CN(C2)C(=O)CCSC[C@H](NC(=O)[C@H](Cc2ccc(O)cc2)NC(=O)[C@H](CO)NC(=O)[C@H]([C@@H](C)O)NC1=O)C(=O)N[C@@H](Cc1ccccc1)C(=O)N[C@@H](Cc1c[nH]c2ccccc12)C(=O)N1CCC[C@H]1C(=O)N[C@@H](Cc1ccccc1)C(=O)N[C@@H](Cc1ccc(O)cc1)C(=O)N[C@@H](CCC(N)=O)C(=O)N[C@H](C(=O)N[C@@H](C)C(N)=O)CSCCC3=O) [BCY19768] | 7.8 µM | 900 nM | – |
| CSEYCFWPFXHC (N-terminal acetyl (Ac); CiSEYCiiFWPF[1Nal]HCiii; Ci, Cii, Ciii on TATA scaffold) [BCY20081] | – | 1060 nM | – |
| CSEYCXWPFYHC (N-terminal acetyl (Ac); CiSEYCii[3FPhe]WPFYHCiii; Ci, Cii, Ciii on TATA scaffold) [BCY20052] | – | 4880 nM | 1250 nM |
| CSEYCFWPXYHC (N-terminal acetyl (Ac); CiSEYCiiFWP[1Nal]YHCiii; Ci, Cii, Ciii on TATA scaffold) [BCY19668] | 12.7 µM | 240 nM | – |
| CSEYCFWPXYHC (N-terminal acetyl (Ac); CiSEYCiiFWP[2Nal]YHCiii; Ci, Cii, Ciii on TATA scaffold) [BCY20076] | – | – | 1290 nM |
| Ac-CSEYCFWPFWHC (linker 1-5-12 via TATA) [BCY20077] | – | – | 750 nM |
| Ac-CSEYCF[1Nal]PFYHC-NH2 (linker 1-5-12 via TATA; SMILES CC(=O)N[C@H]1CSCCC(=O)N2CN3CN(C2)C(=O)CCSC[C@H](NC(=O)[C@H](Cc2ccc(O)cc2)NC(=O)[C@H](CCC(=O)O)NC(=O)[C@H](CO)NC1=O)C(=O)N[C@@H](Cc1ccccc1)C(=O)N[C@@H](Cc1cccc2ccccc12)C(=O)N1CCC[C@H]1C(=O)N[C@@H](Cc1ccccc1)C(=O)N[C@@H](Cc1ccc(O)cc1)C(=O)N[C@@H](Cc1c[nH]cn1)C(=O)N[C@H](C(N)=O)CSCCC3=O) [BCY19669] | 16.6 µM | 2000 nM | – |
| Ac-CSEYCF[2Nal]PFYAC (linker 1-5-12 via TATA) [BCY19296] | < 3.4 µM | 2700 nM | – |
| Ac-CSEYCF[1Nal]PFYAC (linker 1-5-12 via TATA) [BCY19294] | < 3.4 µM | 1500 nM | – |
| CSEYCFXPFYHC (N-terminal acetyl (Ac); CiSEYCiiF[Trp(Me)]PFYHCiii; Ci, Cii, Ciii on TATA scaffold) [BCY20059] | – | 1810 nM | 1500 nM |
| K(Pent4ynoyl)CSEYCFWPFYHC (linker 2-6-13 via TATA) [BCY20042] | – | 1190 nM | 1350 nM |
| CSEYCFXPFYHC (N-terminal acetyl (Ac); CiSEYCiiF[6ClTrp]PFYHCiii; Ci, Cii, Ciii on TATA scaffold) [BCY19671] | 154 µM | 1000 nM | – |
| ACSNYCFWPFWQCA (linker 2-6-13 via TATA) [BCY19770] | 4.5 µM | 1800 nM | – |
| ACSEYCFWPFWQCA (linker 2-6-13 via TATA) [BCY19778] | 4.6 µM | 3600 nM | – |
| ACSEYCFWPFFLCA (linker 2-6-13 via TATA) [BCY19776] | 4.4 µM | 750 nM | – |
| ACSNYCFWPFFQCA (linker 2-6-13 via TATA) [BCY19772] | 13.9 µM | 960 nM | – |

From US20220296726A1 (Bicycle, published 2022)
